In patent US5981167A, “Surface plasmon resonance based enzymatic assay” (priority 1998, dated 1999):

How the values were obtained:
[1] = system: HCV protease His-NS3(183)Δ4AHT; conditions: concentrated enzyme
[2] = biological target: maturation site peptide […] (CMV)
[3] = system: in vitro-translated 5A/5B substrate; assay: Trans-cleavage assay in the presence of 4A peptide; format: biochemical, HCV; conditions: refolded protein
Text: Precipitation of protein occurred at the last step of dialysis, and the soluble protein was clarified by centrifugation. The overall protein recovery was about 0.10%.

Biotin-DTEDVVAC SMSYTWTGK-pY
time to 50% substrate cleavage [1]: ≤ 1 h

CMV protease, refolded wild type (from UniProt P16753) (enzyme)
Km [2]: 1020 µM

B1: HisHIV183: HCV NS3 protease without solubilizing motif, refolded from E. coli inclusion body pellet (protein)
chain: APITAYAQQTRGLLGCIITSLTGRDKNQVEGEVQIVSTATQTFLATCINGVCWTVYHGAGTRTIASPKGPVIQTYTNVDQDLVGWPAPQGSRSLTPCTCGSSDLYLVTRHADVIPVRRRGDSRGSLLSPRPISYLKGSSGGPLLCPTGHAVGLFRAAVCTRGVAKAVDFIPVENLETTMRSPV
activity in trans-cleavage assay [3]: active
